Measurements as given in paper PMC3084716, “Different Conformations of Phosphatase and Tensin Homolog, Deleted on Chromosome 10 (PTEN) Protein within the Nucleus and Cytoplasm of Neurons”.
Where no end group is shown, it is not given here.

T1: PTEN peptide 33-47 amide (human and mouse (same sequence), UniProt P60484)
T1 chain: IAMGFPAERLEGVYR-NH2

B1: PTENz7 (structured_DNA)
DNA: CGGAATTCCGAGCGTGGGCGTGGTCATACCGCGCCTATCGAACTCGCCACTCGCGTGCAGCTCTGTGTAGGTACGCCCACGCTCGAG
B2: PTENz14 (structured_DNA)
DNA: CGGAATTCCGAGCGTGGGCGTGAGCCCTAAACACAAGTCCGCAGGGGTGTGGTAATATTCGCAGTTGTGTGTACGCCCACGCTCGAG

Columns and labels:
[1] = biological target: T2, GST-PTEN (amino-terminal phosphatase domain) (Homo sapiens, UniProt P60484 1-200); assay: filter binding, Scatchard; called affinity constant; Filter binding: 50 mM Tris (pH not given), 1 h, 40 µl, protein 0.5 mg/ml (Fig. 2E: GST-PTEN 25 µM), PBS washes; co-precipitation 1 h at room temperature, 1 µM aptamer; pull-down from homogenate with 250 nM aptamer, salmon sperm DNA, RIPA (1:2)/PBS washes; blots in PBS-BSA 2%; conditions: protein: recombinant; tags: GST (N-terminal, pGEX2T); label: 5'-biotin or 32P (assay dependent); hairpin; 13 bp stem from the constant regions
[2] = biological target: T1, PTEN peptide 33-47 amide; assay: filter binding; Filter binding: 50 mM Tris (pH not given), 1 h, 40 µl, protein 0.5 mg/ml (Fig. 2E: GST-PTEN 25 µM), PBS washes; co-precipitation 1 h at room temperature, 1 µM aptamer; pull-down from homogenate with 250 nM aptamer, salmon sperm DNA, RIPA (1:2)/PBS washes; blots in PBS-BSA 2%; conditions: tags: C-terminal amide; label: 5'-biotin or 32P (assay dependent); hairpin; 13 bp stem from the constant regions
[3] = biological target: T1, PTEN peptide 33-47 amide; assay: co-precipitation on antibody-Sepharose, real-time PCR; peptide bound to anti-PTEN antiserum; 1.8e11 molecules bound; Filter binding: 50 mM Tris (pH not given), 1 h, 40 µl, protein 0.5 mg/ml (Fig. 2E: GST-PTEN 25 µM), PBS washes; co-precipitation 1 h at room temperature, 1 µM aptamer; pull-down from homogenate with 250 nM aptamer, salmon sperm DNA, RIPA (1:2)/PBS washes; blots in PBS-BSA 2%; conditions: tags: C-terminal amide; label: 5'-biotin or 32P (assay dependent); hairpin; 13 bp stem from the constant regions
[4] = biological target: T2, GST-PTEN (amino-terminal phosphatase …); assay: filter binding, Scatchard; data not shown; Filter binding: 50 mM Tris (pH not given), 1 h, 40 µl, protein 0.5 mg/ml (Fig. 2E: GST-PTEN 25 µM), PBS washes; co-precipitation 1 h at room temperature, 1 µM aptamer; pull-down from homogenate with 250 nM aptamer, salmon sperm DNA, RIPA (1:2)/PBS washes; blots in PBS-BSA 2%; conditions: protein: recombinant; tags: GST (N-terminal, pGEX2T); label: 5'-biotin or 32P (assay dependent); hairpin; 13 bp stem from the constant regions

T2 sequence (P60484 1-200): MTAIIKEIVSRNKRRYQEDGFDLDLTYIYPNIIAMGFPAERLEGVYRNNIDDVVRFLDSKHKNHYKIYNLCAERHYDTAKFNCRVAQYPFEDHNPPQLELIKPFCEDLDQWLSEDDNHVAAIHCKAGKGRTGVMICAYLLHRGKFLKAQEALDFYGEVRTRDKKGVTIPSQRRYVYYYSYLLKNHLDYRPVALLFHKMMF

Binder | Kd [1] | binding result [2] | binding signal [3] | Kd [4]
B1 | 75 nM | binds | – | –
B2 | – | – | ~20 fold over background | 54 nM
